Experimental data taken from a protein production outcome set (Wang et al. 2014).

Assay: label from the status in PepcDB records

Sequence	protein production
MPLRSAGSGKASRDAVHHPLFARSYARISVTAETRLGMGGVRDRLLAGLSGRVIEIGAGNGLNFAHYPGAVSEVVAIEPERLLRQLAVEAALRCDVPVDVVPGAAEALPVKSEAFDAAVVSLVLCSVRDVSRALGELRRVLRPGGTLRFFEHGAGGGRAMAATQRALDRTVWPRLNGGCHLTRDAVSAVREAGFELGPYRRMLLPEKGPRLPTSYCVLGTAWRPGSAD	failed
MPLTIRPARFEELPAVQAIERLSARRFVGWIDALADDDPSPLERLAERSASGGLLVADVETGEGPKAAGFVMFRPMEDSLYIEQIDVAPAFERRRIGATLINAVADRAVALGLSRLTLSTFREIPWNAPYYRRLGFVDLDDEA	failed
MPLTPGTLLAGRYELLALLGEGGSAQVYRAQDGLLGREVALKVMHDYLPESDRSRFLREVRTLARLTHPGVVPVLDLGQEPEAGRPFFTMPLLTGGPITRLGPLEDAPGPLARFLTAAAFASRALHHVHSHGIVHRDLTPGNVLLDDTGLPRIMDFGLVALSEQTRHLTRSGVTLGTPAYMAPEQAKGGGVDARSDLYALGAVLYRVACGSPPFVGDSDQSVLYQHVYEPVPDPRDLNPAVPDAVARVLLWLLAKRADRRPQSGAALAHLWALARRDLWTTHARGQYRGGRARTGEHPDGPARVSDMQELWSVALPGEVTWPAAVVGEGDLVAVGTRGGQLVLTHTSGRPFATYAARDEVTAPATLIGGHVLYGAWDGTLRRVELQSGSEVWRHQARAEFTGAPTVWGGRLLAPSRDGHLHALSLRTGELAWAYRAGGSLAASPLVWAGAALQCDETGWLHALDARSGTPLWKVEVGTVHATPALLPGPPGTATLVIATWEGEVHAIGLEVQNGRAALAGEDAIRWTYDVEDEVWASPALTALDLPPDSGAAPDASAAPGGVVVVAGWGGKVRGLRLADGEDLWERTLDGRVTASPVISAGLVFLATEGGELLALDVRNGEVRWTCRERSGVQATPLAASGTLYVAFMDGTLRAYRNAHPEWRSEQEG	failed
MPLVHRSALPALCLSLILPWTFSVQAADPAPETKTPEEQPAQRQPLPERSQKDAAALERQLPALEQQQLQAGGDTFLALWKPANTSDPKGVVIILPGAGETADWPQAIAPLRNKLPDTEWASLSLTLPDMLSEAAQPRVVEAAPVPTDKANTAKDASTEAKPIEQVAGGEADVADRVVAESTEEQIKADAERIFTRVDAALAFAEQQNARSIVLLGHGTGAYWAARYLSEKQPAQVQKLVMVAAQSPANGKPQLAEITPTLKLATADFFYVDKPLAQKAALERLQASKRLKHSNFSQIPLKALPGNNTAQQEQLFRRVRGWLNPQNTDS	not failed
MPMGSLQPLATLYLLGMLVASCLGRLSWYDPDFQARLTRSNSKCQGQLEVYLKDGWHMVCSQSWGRSSKQWEDPSQASKVCQRLNCGVPLSLGPFLVTYTPQSSIICYGQLGSFSNCSHSRNDMCHSLGLTCLEPQKTTPPTTRPPPTTTPEPTAPPRLQLVAQSGGQHCAGVVEFYSGSLGGTISYEAQDKTQDLENFLCNNLQCGSFLKHLPETEAGRAQDPGEPREHQPLPIQWKIQNSSCTSLEHCFRKIKPQKSGRVLALLCSGFQPKVQSRLVGGSSICEGTVEVRQGAQWAALCDSSSARSSLRWEEVCREQQCGSVNSYRVLDAGDPTSRGLFCPHQKLSQCHELWERNSYCKKVFVTCQDPNPAGLAAGTVASIILALVLLVVLLVVCGPLAYKKLVKKFRQKKQRQWIGPTGMNQNMSFHRNHTATVRSHAENPTASHVDNEYSQPPRNSRLSAYPALEGVLHRSSMQPDNSSDSDYDLHGAQRL	failed
MPMNISNTKERILAVAEALIQKDGYNAFSFKDIATAINIKTASIHYHFPSKEDLGVAVISWHTDKIAAVLSDISNNSSLSAKEKIQKFFDAILTLTYNSENKMCLGGMFASDFQSLPVSIQNQAKKFFELIIEWLKGVLETNGYDNESSLSLAKQIISLVEGGLLLARLYGDETFLEGVRHFIDQTIK	not failed
MPMPMACWCRRSRCRWMAPADRSDRKPEGDAVTLKRWLSGGVLMVASLVATTHAAELPAGMQQFDVQMERVRKQFDVPGIAVAIVKDGQVVLERGYGVRETGKPAPVQADTLFAIASNTKAFTAASLSILADEGKLSLEDKVIDHLPWFRMSDPYVGGEMRIRDLLAHRSGLSLGAGDLLFWPTTSYTTEEVVQRLAKVPLKGGFRDRYAYDNILYAVAQKVIEQVSGQSYEAFLQQRIFAPVGMRGTRFNADHLQAGDHAAVGHAKYDFTELRTVAPLTWSNNSGAGGIYSSAHDMALWMNVQLAGGILPDGKPLFSAKRQHEMWSMITPIPIGEVQLPEFAAARPNFAGYGEGWSLSDYRGHRMVWHTGGWPGMVSRLTLLPDQKLGVVVLTNQEVGAAFNAVTFQVLDAFLRVPPTDWTAAYAKLVEKADSDADASWKKHQDARAARSTPSLPLRSYAATYRDPWYGDVVIVQDGKRLRLQFAKTAQLVGTLEHWQHDSFIVRWDDRSLNADAFVNFLLTPDGAVREMRMEPISPLTDFSFDFQDLVLTPVPTETAAGK	failed
MPMPSVRHDEHRPLSPAATLIGPARALEAVLAPGPGPGRPPGLPRPAPGTRRAMKWQQVQEGPSAVYVVVLDQGEDAVAELTAFARERSLGASQVTAVGAFSQAVVGWFDRQAKDYRHIPVREQCEVLSLIGDIAVADDGPTPHLHAVLGLSDGSTRGGHLLSGRVWPTLEVVVRDSPAELAKIHRPDIGLALIDPG	failed
MPMWLQALMWGTLAGGALVLGAGIAWMWKVPPKIVSTVMAFGAGVLISALAFELVDEAVEGGGLLPTVLGFLLGALIFVGSNALLARAGAKHRKRSGGSQPSEKDSPGSGTAIAVGALIDGIPESVVLGVGLLAGGAVSPAMLAAVLISNVPEGLSSTAGMKKAGRSPAYVFGTWIGIAVFSGLAALLGYTALENAPETVIAFITAIAAGGILAMLADTMIPEAFEEHHNLTGLTAAVGFLSAFTIHHVGG	failed
MPMYQETSEPSLQALESRQDDILKRLYELKAAVDGLSKMIHTPDADLDVTNILQADEPTTLATNTLDLNSVLGKDYGALKDIVINANPASPPLSLLVLHRLLCERYRVLSTVHTHSSVKNVPENLVKCFGEQARKQSRHEYQLGFTLIWKNVPKTQMKFSVQTMCPIEGEGNIARFLFSLFGQKHNAVTLTLIDSWVDIAMFQLREGSSKEKAAVFRSMNSALGRSPWLVGNELTVADVVLWSVLQQTGGSSGAAPTNVQRWLKSCENLAPFSTALQLLK	failed
MPNFSKNEEVLFSAVNEIFEEKIPFNKIIGLKVRFISPEQVKLSFEMRDELIGNAIRRMLYGGVISSAIDMTAGLAAFMGFQEKMSGKPMEEKLAMIGRLSTMSLHVEYLRPGLGREFVCTGYNVRTGNKVAVIRTELMNDQDELIAVGSVSYILV	not failed
MPNQPVTVESFMPVEGKLREKVIVKGSNFGTDKSKVKVYFVDEAAERLSTVIGIDNNTLYCLAPRQLPGGNRIKVIVDGKEVTTDGTFKYEQAQNVSTISGSASKDGNDDGDLASAKFKYMWGIAAVGNNTVLAYQRDDPRVRLISVDDNKVTTVHPGFKGGKPAVTKDKQRVYSIGWEGTHTVYVYMKASGWAPTRIGQLGSTFSGKIGAVALDETEEWLYFVDSNKNFGRFNVKTQEVTLIKQLELSGSLGTNPGPYLIYYFVDSNFYMSDQNLSSVYKITPDGECEWFCGSATQKTVQDGLREEALFAQPNGMTVDEDGNFYIVDGFKGYCLRKLDILDGYVSTVAGQVDVASQIDGTPLEATFNYPYDICYDGEGGYWIAEAWGKAIRKYAVELEHHHHHH	not failed
MPNSRPRPRRGAGGGAGAAGRDRLVARSLQSAEHCLGDQDFGTAYAHYLLVLSLAPELKDDVKETFQYTLFKWAEELHALSRIQDLLGCYEQALELFPDDEVICNSMGEHLFRMGFRDEAAGYFHKAVKLNPDFNDAKENFYRVANWLVERWHFIMLNDTRRNMVYNAAIQKAVCLGSRTVLDIGTGTGILSMFAKKAGAQSVYACELSKTMYELACDVVAANKMENGIKLLHMKSLDIEIPKHIPERVSLVVTETVDAGVFGEGIVESLIHAWEHLLLQPKTKEENGNCGKYGKVIPAGAVIFGMAVECAEIRRHHRVGAKDIAGIHLPTNVKFQSPAYTSVDTEETVEPYTTEKMSGIPGGYLPLTECFQIMKVDFNNLQELKSLATKKPHSLNVPAIKEGVLDAIMVWFVLQLDDEYSLSTSPSEETCWEQAVYPVQALEDYCIQPGDRVTMEASCHDCYLRIQGISILHLEHEMEVMKGFTKSKDLLSLGNEAELCSALANLQTSRPEALEQTCMLEPTEIALLNNIPYHEGFKTAMRKVLSSLAPELLWQPMDTHCQYMEMNSGSGQSDAAPSTADPFYVLDVSEGFSLLPILAGTLGHVKPYSSVEKDQHCIALDLIAEANHFPKETLEFWLRHIEDEAAVLQRPKSDKLWSIIILDVIEPSGLIQQELMEKAAISRCLLQSGGKIFPQYVLMFGMLVESQTLVEESAVQGTEHTLGLNIAPFINQFQVPIRVCLDLSSLPCVPLSQPVELLRLDLMTPYLNTSNKEVKVRVCRSGRVTAVPFWFHLCLDDEVRLDTSGEASHWKQAAVVLDNPIQVQAGEELVLSVEHHKSNVSIAVKP	failed
MPNTNPVAAWKALKEGNERFVAGRPQHPSQSVDHRAGLAAGQKPTAVIFGCADSRVAAEIIFDQGLGDMFVVRTAGHVIDSAVLGSIEYAVTVLNVPLIVVLGHDSCGAVNAALAAINDGTLPGGYVRDVVERVAPSVLLGRRDGLSRVDEFEQRHVHETVAILMARSSAISERIAGGSLAIVGVTYQLDDGRAVLRDHIGNIGEEV	not failed
MPNTPWSATSQNLGQDFHNWSGGLRFRPSRLDVPEDEETVAALVRAAARQGRSIRPVGSAHSSSEIYVTDDILVSMAGICGLREHDAQHHRATVGAGSQLTELSKELQAAGMTLSNFGDVATQTVGGAIGTGTHGSGRDFPNLSMMLVGGRLVTAGGEIRTFDVEEEPDFVRALRVSFGTLGILTWTTLKLEPLHDLHRQEWCLAFEPCMEVLDKLSRENRNFDFYWYPRSDEVKIRCLNPPGEEKDYGAFARLAKDETGPPHEVIPQHSDLPHRFEEMEYSMPAEAGPECLGKLRARIKERWRRSVGWRLLFRYIKADDSWLSEAYGRDSVSISLHQNATLPYWDFFLDLEPIMRDHGGRPHWAKKHSLRAAELRPLYPMWDRFLALRQEMDPGGRFLTRYLRGLLGC	failed
MPPLCRRQSGVPSGRRARHSGGMRLLVLGGTEFVGRSVVEAALGRGWEVTVLHRGRHAPPPGVRALHGDRTAPDGLTALTGAEDTWDAVVDTWSAAPRAVRDAARLLRQRAGRYVYVSSCSVYAWAPPAGYAEDAPLVEGASADAGQRDYARDKRGAELAVLDAFGADRSVLVRAGLILGPYENVGRLPWWLNRLARGGPVLAPGPRDLPLQYIDVRDLADWVLGAVERELSGPYNLVSPPGHTTMGGLLEACATVTGGTAELRWTSPETVLAAGIEPWVQLPVWTPPGSDLHDALHTADVSRALATGLVCRPARDTAAGTWTWLRDLGGTAPQRPDRPPVGLDPETEAKVLAADGPGGGVSDTTP	failed
MPPMLSGLLARLVKLLLGRHGSALHWRAAGAATVLLVIVLLAGSYLAVLAERGAPGAQLITYPRALWWSVETATTVGYGDLYPVTLWGRLVAVVVMVAGITSFGLVTAALATWFVGREQERRGHFVRHSEKAAEEAYTRTTRALHERFDRLERMLDDNRR	failed
MPPPAMLAFDDGLARKSNDNEWQGFRVFPGENTNPNPNINFLVKKAILQNEKSITPLFSRSSARDDSFRIVLPPALPPPRDSTVPLPMLPEPMRVRKKLSHQESVIFMSKSRFAEKILYKEEDFKCNAFCLSLPGFGKNKLIRSSSKRQNSMEKKMIRASSFTGSTVSVRASLEKFECGSWASTTALIQDNGRLFFDFPVEMTKCNSRGGNGGRDVQEPVTSGFLFDRETETLALRSVLKTRSTRDHRRSAESSPQRRVRFSTSSSSASVSCPTSPRTCITPRLRKARDDFNTFLTAQNA	failed
